The target of assay [1] is ACE-2-Fc fusion protein (human) (UniProt Q9BYF1). Description: BLI. (BLI is a label-free optical method that tracks binding on a fibre tip over time.)
The target of assay [2] is SARS-CoV-2 spike wt (in-house) (SARS-CoV-2) (UniProt P0DTC2). Description: ELISA.

pKd: −log10 of the molar value.

Chain of UniProt Q9BYF1 (Q9BYF1 18-740): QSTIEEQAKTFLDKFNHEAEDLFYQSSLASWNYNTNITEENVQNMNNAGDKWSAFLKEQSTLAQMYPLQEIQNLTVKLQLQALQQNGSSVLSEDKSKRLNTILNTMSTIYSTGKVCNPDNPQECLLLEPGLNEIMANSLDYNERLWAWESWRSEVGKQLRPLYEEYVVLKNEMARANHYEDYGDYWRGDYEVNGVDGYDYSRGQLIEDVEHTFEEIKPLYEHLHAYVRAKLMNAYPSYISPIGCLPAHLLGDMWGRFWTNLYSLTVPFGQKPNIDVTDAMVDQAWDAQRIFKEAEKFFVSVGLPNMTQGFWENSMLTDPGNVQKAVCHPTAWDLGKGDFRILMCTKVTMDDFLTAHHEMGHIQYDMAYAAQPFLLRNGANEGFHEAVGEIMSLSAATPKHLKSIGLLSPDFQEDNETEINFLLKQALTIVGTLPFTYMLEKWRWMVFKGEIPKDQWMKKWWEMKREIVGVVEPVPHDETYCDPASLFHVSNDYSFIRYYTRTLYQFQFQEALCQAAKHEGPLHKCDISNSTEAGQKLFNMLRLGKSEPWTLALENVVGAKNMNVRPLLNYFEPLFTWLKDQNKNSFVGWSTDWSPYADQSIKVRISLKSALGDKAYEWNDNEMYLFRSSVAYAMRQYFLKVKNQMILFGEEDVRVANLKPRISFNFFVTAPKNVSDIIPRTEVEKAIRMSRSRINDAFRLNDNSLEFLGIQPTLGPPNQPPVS

As usually defined, the pKd is −log10 of the Kd, conventionally taken in molar units. One may read the koff as the first-order rate constant of dissociation. A high value points to fast dissociation. In general, kon refers to a measure of how fast the partners come together. In assay [1], “SARS-CoV-2 RBD Omicron BA.2 (domain or fragment)” gave a pKd of 8.35, a fold improvement of kdis compared to the wt of 1.76 fold, a koff of 0.0032 s⁻¹ and a kon of 716000 M⁻¹ s⁻¹.
In assay [1], SARS-CoV-2 RBD wt (domain or fragment) had a pKd of 7.63.
Substance “native MBL from sera (from UniProt P11226 21-248) (natural protein)” showed a fold increase of binding after total IgG depletion of vaccinee plasma in assay [2] of 2.6 fold.

Source of the values: PMC11666439.
